Numbering of substitutions follows the chain as printed. Read-outs that look alike come from different tables or passages of the source. Non-standard residues stand in square brackets, D forms with d. Residues, ends and D or L forms follow the SMILES beside them. No end group written: not given here. Abu = CC[C@H](N)C(=O)O
Assays:
Trypsin [1] = test: Trypsin inhibition assay (BAPNA); format: biochemical; conditions: for trypsin inhibition: BAPNA, 37° C.
Protocol: An assay was developed for determination of the activity of this Trypsin inhibitor. In analogy with the elastase inhibition assay the preparation of the solution was as follows:
Trypsin, Type II-S soybean trypsin inhibitor (Sigma T 9128) and BAPNA (Sigma B 3279). This was further optimized to: trypsin solution: 120 μg/ml; BAPNA solution 10 mM; Trypsin inhibitor 100 μg/ml and incubation at 37° C. All other details were equal with the elastase inhibition assay.
(§1) Elastase inhibitory activity of Fahsin was measured by inhibition of the release of the p-nitroanilide group from the synthetic substrate N-succinyl-(Ala) 3-p-nitroanilide (SAAAP) (Calbiochem), catalyzed by pancreatic elastase and human neutrophil elastase respectively. Chymotrypsin inhibition activity of Fahsin was measured by the use of the synthetic substrate S-2586 (Kabi Vitrum). […] of Fahsin was measured by the use of the synthetic substrate S-2238 (Kabi Vitrum). pepsin activity of Fahsin was measured by the use of a haemoglobin substrate. Trypsin inhibition activity was determined using the BAPNA assay. Plasmin inhibition activity of Fahsin was related with the Trypsin inhibition activity and measured by the use of the chromogenic substrate D-Val-Leusyl-Lys-pNA (Othodiagnostics).

[2] = molecular target: T1, elastase (Boehringer, 1027891) (Sus scrofa, UniProt P00772); test: Elastase inhibition assay (chromogenic substrate SAAAP, 405 nm); format: biochemical; conditions: for specific (elastase) activity: IU = quantity reducing hydrolysis of SAAAP with 1 μmol/min at pH 8.3 and 25° C.; for inhibition of elastase activity: SAAAP substrate, 25° C., 30 minutes
T1 construct: purchased Boehringer 1027891
T1 sequence (P00772 27-266): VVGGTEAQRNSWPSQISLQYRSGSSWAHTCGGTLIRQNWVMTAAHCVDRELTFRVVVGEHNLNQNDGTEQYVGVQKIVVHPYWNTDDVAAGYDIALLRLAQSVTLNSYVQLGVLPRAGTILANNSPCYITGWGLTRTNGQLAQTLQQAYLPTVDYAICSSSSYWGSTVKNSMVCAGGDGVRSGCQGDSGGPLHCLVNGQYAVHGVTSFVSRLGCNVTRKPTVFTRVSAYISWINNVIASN
Protocol: 2. Prior lyophilized base material underwent solubility tests after resuspension of the base material in 1) 0.1M Acetic Acid, 2) 50% Acetic Acid and 3) 0.1M Ammoniumbicarbonate and after centrifugation of the various suspensions, supernatants and pellets (after resuspension). Thereafter these were tested on the presence of protein by analytical sequence analysis (Edman degradation with automated sequenator Applied Biosystems, Model 477A) (Edman, 1956; Ilse & Edman, 1963), by applying protocolls, reagentia, chemicals and materials from Applied Biosystems (Warrington, UK and Foster City, Calif., USA) (Hewick, et al, 1981).It was investigated if biologic activity included anti-elastase as the described "auto-antibiotic effect" of A. hydrophila. Therefore, tests on inhibition of elastase activity were executed with dried samples of 20 μl of supernatant and resuspension of pellet of the base material on elastase (Boehringer) and SAAAP (Fluka) as chromogenic substrate, and 0.1 M Tris/HCl pH 8.2 as assay buffer. Based on the results obtained with the different solutions, and the inhibition of elastase, it was decided to use 0.1 M Hac as solution for the lyophilized base material and thereafter as eluens for gel filtration.
The principle of the assay resides in inhibition of elastase (Boehringer, 1027891) activity on the chromogenic substrate SAAAP (Fluka, nr. 85975) as measured at 405 nm spectophotometrically by monitoring release of the p-nitro-aniline group during substrate digestion.
Assay buffer: 0.1M Tris/HCl pH 8.2, 1M NaCl.
Elastase: 40 μg/ml in H2 O.
Substrate: 1.0 mM SAAAP in H2 O.
Glacial Acetic Acid 50%: diluted in H2 O.
Reaction in tubes (Eppendorf), containing 100 μl assay buffer, 50 μl sample elastase inhibitor, 50 μl elastase solution was started by addition of SAAAP (25 μl, 1 mM) and incubated at 25° C. for 30 minutes. Thereafter the reaction was stopped by addition of 25 μl 50% Glacial Acetic Acid. The Absorbance of released p-nitroaniline was read at 405 nm.
International units (IU) are defined as that quantity which reduces the enzymatic hydrolysis of SAAAP with 1 μmol/min at pH 8.3 and 25° C.

[3] = Protocol: Stability of the molecule was tested
a) by boiling it in water at 100° C. for 30 minutes.
b) by immersion in 50% acetic acid at room temperature during one night, and
c) by immersion in 0.1M HCl in the same conditions.
The samples were consequently assayed with the elastase inhibition assay, as were blancs without inhibitor.

[4] = molecular target: elastase (Boehringer, 1027891)
plasmin = plasmin (Homo sapiens, UniProt P00747); test: Plasmin inhibition (chromogenic substrate D-Val-Leusyl-Lys-pNA); format: biochemical
Sequence of plasmin (P00747 581-810 limits assumed, species assumed): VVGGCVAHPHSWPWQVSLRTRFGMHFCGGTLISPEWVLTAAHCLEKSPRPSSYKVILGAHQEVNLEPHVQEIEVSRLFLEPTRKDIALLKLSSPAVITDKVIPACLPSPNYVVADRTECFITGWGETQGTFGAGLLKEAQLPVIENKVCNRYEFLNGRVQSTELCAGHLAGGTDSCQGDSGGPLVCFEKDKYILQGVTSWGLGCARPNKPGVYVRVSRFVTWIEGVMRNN
Sequence of plasmin (P00747 97-580 partner limits assumed, species assumed): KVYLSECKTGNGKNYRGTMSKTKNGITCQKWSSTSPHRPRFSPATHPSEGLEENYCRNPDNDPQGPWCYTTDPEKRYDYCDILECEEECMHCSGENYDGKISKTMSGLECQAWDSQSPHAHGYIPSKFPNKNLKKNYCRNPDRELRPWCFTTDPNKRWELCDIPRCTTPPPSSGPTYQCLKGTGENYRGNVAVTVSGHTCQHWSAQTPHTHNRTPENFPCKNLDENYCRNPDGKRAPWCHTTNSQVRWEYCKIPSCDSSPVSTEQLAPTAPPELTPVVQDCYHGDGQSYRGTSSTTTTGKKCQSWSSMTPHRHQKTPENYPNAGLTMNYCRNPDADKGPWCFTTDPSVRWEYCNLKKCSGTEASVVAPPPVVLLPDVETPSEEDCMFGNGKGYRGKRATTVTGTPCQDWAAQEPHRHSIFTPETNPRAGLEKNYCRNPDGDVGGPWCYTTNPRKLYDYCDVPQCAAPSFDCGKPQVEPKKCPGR
Protocol: as §1

trypsin [5] = molecular target: trypsin
[6] = molecular target: elastase (Boehringer, 1027891); remark: listed apart in the source

CC[C@H](NC(=O)[C@H](CCCNC(=N)N)NC(=O)[C@@H](NC(=O)[C@@H]1CCCN1C(=O)[C@@H](NC(C)=O)[C@@H](C)O)[C@@H](C)CC)C(=O)N[C@@H](CCCNC(=N)N)C(=O)N[C@H](C(=O)N[C@@H](Cc1ccc(O)cc1)C(=O)N[C@@H](CC)C(=O)N1CCC[C@H]1C(=O)N[C@@H](CCCCN)C(=O)NCC(=O)N[C@@H](Cc1ccccc1)C(=O)N[C@@H](CCC(=O)O)C(=O)N[C@H](C(=O)N[C@@H](CC(=O)O)C(N)=O)C(C)C)[C@@H](C)CC [Synthetic peptide II, N-Acetyl-TPIRAbuRIYAbuPKGFEVD-amide] (Ac-TPIR[Abu]RIY[Abu]PKGFEVD-NH2)
trypsin inhibition (Trypsin [1]): dose-dependent inhibition of trypsin activity | specific effectivity (trypsin inhibition), factor less than the native molecule (Trypsin [1]; relative to native molecule): ~1,500

peak 7: single molecule isoform from Limnatis nilotica, 5494.4 D, partial sequence in b92, elastase inhibitor (DDDCGGQVCSKGQLCHDGHCECTPIRCLIYCPNFVDE)
specific (elastase) activity [2]: 1.2 IU/mg | inhibition of elastase activity [2]: showed inhibition of elastase

DDNCGGKVCSKGQLCHDGHCECTPIRCLIFCPNGFAVDENGCELPCSCKHQ (cysteine pairing not given here) [peak 8]
specific (elastase) activity [2]: 1.7 IU/mg | inhibition of elastase activity [2]: showed inhibition of elastase | stability: elastase inhibiting activity after treatment ([3]; 0.1M HCl at room temperature during one night): no significant decrease of inhibiting activity | stability: elastase inhibiting activity after treatment ([3]; 50% acetic acid at room temperature during one night): no significant decrease of inhibiting activity | stability: elastase inhibiting activity after treatment ([3]; boiling in water at 100° C. for 30 minutes): no significant decrease of inhibiting activity

CC[C@H](NC(=O)[C@H](CCCNC(=N)N)NC(=O)[C@@H](NC(=O)[C@@H]1CCCN1C(=O)[C@@H](NC(C)=O)[C@@H](C)O)[C@@H](C)CC)C(=O)N[C@@H](CC(C)C)C(=O)N[C@H](C(=O)N[C@@H](Cc1ccccc1)C(=O)N[C@@H](CC)C(=O)N1CCC[C@H]1C(=O)N[C@@H](CC(N)=O)C(=O)NCC(=O)N[C@@H](Cc1ccccc1)C(=O)N[C@@H](C)C(=O)N[C@H](C(=O)N[C@@H](CC(=O)O)C(N)=O)C(C)C)[C@@H](C)CC [Synthetic peptide I, N-Acetyl-TPIRAbuLIFAbuPNGFAVD-amide] (Ac-TPIR[Abu]LIF[Abu]PNGFAVD-NH2)
inhibition of elastase activity [2]: dose-dependent inhibition of elastase activity | specific effectivity (elastase inhibition), factor less than the native molecule ([2]; relative to native molecule): ~5,000

B1: Synthetic linear peptide N-Acetyl-TPIRAbuLIFAbuPNGFAVD-amide (I) (peptide)
peptide: Ac-TPIR[Abu]LIF[Abu]PNGFAVD-NH2
SMILES: CC[C@H](NC(=O)[C@H](CCCNC(=N)N)NC(=O)[C@@H](NC(=O)[C@@H]1CCCN1C(=O)[C@@H](NC(C)=O)[C@@H](C)O)[C@@H](C)CC)C(=O)N[C@@H](CC(C)C)C(=O)N[C@H](C(=O)N[C@@H](Cc1ccccc1)C(=O)N[C@@H](CC)C(=O)N1CCC[C@H]1C(=O)N[C@@H](CC(N)=O)C(=O)NCC(=O)N[C@@H](Cc1ccccc1)C(=O)N[C@@H](C)C(=O)N[C@H](C(=O)N[C@@H](CC(=O)O)C(N)=O)C(C)C)[C@@H](C)CC
specific effectivity against the native molecule [4]: 5000 factor less

B2: peak 5: 1:1 mixture of 2 peptides, 5377.2 and 5435.5 Dalton, SEQ ID NO:5 or 6, trypsin inhibitor (protein)
chain 1: DDDCGGQVCSKGQLCVDGQCKCTPIRCRIYCPKGFEVDENGCELPCTCKQ
chain 2: B2 chain 1 with D2G, D3N
specific (elastase) activity [2]: less than 0,06 IU/mg | inhibition of elastase activity [2]: did not show anti-elastase activity | trypsin inhibition (Trypsin [1]; listed as Fahsin T 1-2): strongly active | trypsin inhibition (Trypsin [1]; listed as Fraction 5): strong trypsin inhibition | trypsin inhibitory activity compared with the fractions corresponding to peaks 7, 8 and/or 9 (Trypsin [1]; ratio to peaks 7, 8 and/or 9): at least twenty times higher | inhibition of plasmin (plasmin): strongly active

B3: Synthetic linear peptide N-Acetyl-TPIRAbuRIYAbuPKGFEVD-amide (II) (peptide)
peptide: Ac-TPIR[Abu]RIY[Abu]PKGFEVD-NH2
SMILES: CC[C@H](NC(=O)[C@H](CCCNC(=N)N)NC(=O)[C@@H](NC(=O)[C@@H]1CCCN1C(=O)[C@@H](NC(C)=O)[C@@H](C)O)[C@@H](C)CC)C(=O)N[C@@H](CCCNC(=N)N)C(=O)N[C@H](C(=O)N[C@@H](Cc1ccc(O)cc1)C(=O)N[C@@H](CC)C(=O)N1CCC[C@H]1C(=O)N[C@@H](CCCCN)C(=O)NCC(=O)N[C@@H](Cc1ccccc1)C(=O)N[C@@H](CCC(=O)O)C(=O)N[C@H](C(=O)N[C@@H](CC(=O)O)C(N)=O)C(C)C)[C@@H](C)CC
specific effectivity against the native molecule (trypsin [5]): 1500 factor less

B4: peak 9: isoform found to be a mixture of two molecules, 5385.5 and 5454.1 D, partial sequence in b93 (protein)
chain 1: DDDCGGKVCSKGQLCVDGHCECTPIRCLIYCPNGFAVENGC
chain 2: B4 chain 1 with D2G, D3N, K7Q, H19Q, E21K
specific (elastase) activity [2]: 0.95 IU/mg | inhibition of elastase activity [2]: showed inhibition of elastase

DDDCGGQVCSKGQLCHDGHCECTPIRCLIYCPNFVDE [FAHSIN E 1]
specific (elastase) activity, inhibition of SAAAP hydrolysis [6]: 1.2 IU/mg
